In publication PMC10039049 one finds Kd data, which are given here for four substances.

The target of this assay is extracellular leucine-rich repeat (LRR) domain of OsER1 (OsER1^LRR) (rice (Oryza sativa)) (UniProt Q69SP5). Put plainly: ITC; about 0.3 mM OsEPFL peptide injected (24 x 1.5 uL) into 0.03 mM OsER1^LRR in the cell; ITC200, 25 °C, 10 mM Bis-Tris pH 6.0, 100 mM NaCl.
UniProt Q69SP5, sequence (Q69SP5 25-577): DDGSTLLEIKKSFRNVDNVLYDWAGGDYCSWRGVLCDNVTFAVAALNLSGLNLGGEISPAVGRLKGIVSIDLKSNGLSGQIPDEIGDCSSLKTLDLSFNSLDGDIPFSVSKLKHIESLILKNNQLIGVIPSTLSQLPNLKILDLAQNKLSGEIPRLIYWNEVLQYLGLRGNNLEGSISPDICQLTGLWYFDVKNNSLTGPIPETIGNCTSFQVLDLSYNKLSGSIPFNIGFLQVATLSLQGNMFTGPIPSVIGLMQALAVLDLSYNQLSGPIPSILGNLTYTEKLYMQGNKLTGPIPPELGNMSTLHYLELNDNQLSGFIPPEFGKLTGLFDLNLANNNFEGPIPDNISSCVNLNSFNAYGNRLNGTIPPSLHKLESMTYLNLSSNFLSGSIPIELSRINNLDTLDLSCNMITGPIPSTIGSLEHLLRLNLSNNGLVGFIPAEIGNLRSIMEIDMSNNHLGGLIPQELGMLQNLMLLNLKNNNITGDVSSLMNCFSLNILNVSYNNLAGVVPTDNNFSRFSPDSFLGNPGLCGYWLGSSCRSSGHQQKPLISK

For the substance predicted mature small peptide OsEPFL9, the Kd (usually the free concentration of one partner at which half of the binding sites on the other are occupied at equilibrium, for simple one-to-one binding) came out at 56.8 µM. In other words, the double-digit micromolar range.

In turn, predicted mature small peptide OsEPFL8 yielded a Kd of 18.7 µM. For predicted mature small peptide OsEPFL7 the value was 1.02 µM. As for predicted mature small peptide OsEPFL6, the Kd was 1.35 µM.
